Experimental data from PMC10043188.

Target: T1, His-tagged Arc, wild type, purified, Q9WV31
T1 chain: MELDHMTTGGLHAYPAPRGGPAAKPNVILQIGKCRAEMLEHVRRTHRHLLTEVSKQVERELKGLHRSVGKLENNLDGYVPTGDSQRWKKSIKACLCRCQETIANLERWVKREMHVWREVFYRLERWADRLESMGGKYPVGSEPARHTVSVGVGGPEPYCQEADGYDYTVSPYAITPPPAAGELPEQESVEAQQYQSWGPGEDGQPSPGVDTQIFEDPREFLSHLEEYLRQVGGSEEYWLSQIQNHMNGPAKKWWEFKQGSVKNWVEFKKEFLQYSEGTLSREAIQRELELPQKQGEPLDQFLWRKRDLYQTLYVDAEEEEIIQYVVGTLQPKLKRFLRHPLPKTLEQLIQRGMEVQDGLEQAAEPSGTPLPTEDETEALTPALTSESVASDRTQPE
Assay: SDS-PAGE under non-reducing conditions; purified His-Arc in SDS sample buffer without 2-mercaptoethanol, heated 5 min at 95°C; total protein stain and anti-Arc immunoblot
Details: remark: other sources report otherwise

- stoichiometry N: 2
B1: His-tagged Arc, wild type, purified, Q9WV31 1-396 (natural protein)
chain: MELDHMTTGGLHAYPAPRGGPAAKPNVILQIGKCRAEMLEHVRRTHRHLLTEVSKQVERELKGLHRSVGKLENNLDGYVPTGDSQRWKKSIKACLCRCQETIANLERWVKREMHVWREVFYRLERWADRLESMGGKYPVGSEPARHTVSVGVGGPEPYCQEADGYDYTVSPYAITPPPAAGELPEQESVEAQQYQSWGPGEDGQPSPGVDTQIFEDPREFLSHLEEYLRQVGGSEEYWLSQIQNHMNGPAKKWWEFKQGSVKNWVEFKKEFLQYSEGTLSREAIQRELELPQKQGEPLDQFLWRKRDLYQTLYVDAEEEEIIQYVVGTLQPKLKRFLRHPLPKTLEQLIQRGMEVQDGLEQAAEPSGTPLPTEDETEALTPALTSESVASDRTQPE
